We go through one substance from paper PMC3643604.

For this assay, the target named is MED25 ACID/PTOV domain (purified) (human). The assay can be described thus: ITC. On the technique in general: In ITC the heat of successive injections is recorded.

As usually defined, the Kd is the concentration at which binding is half-saturated. Higher therefore signals weaker binding. What is called stoichiometry N is the number of molecules, sites or subunits per partner or assembly. “ERM 38–68 peptide (from UniProt P41161 38-68)” showed a Kd of 543 nM and a stoichiometry N of 1.
